# Test results taken from the supplement of paper PMC12636428.
# Test system: Saccharomyces cerevisiae
# Assay: transcriptional activation domain activity (GFP:mCherry ratio, weighted mean of sorted bins, harmonized to initial dataset scale) (arbitrary fluorescence ratio units); higher = stronger transcriptional activation
# Conditions: beta-estradiol 1 µM; induction time 4 h
# Method: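 53-aa protein tiles (fungal proteins plus yeast TF control tiles) fused C-terminally to a DBD-estrogen-binding domain-mCherry synthetic TF, integrated in S. cerevisiae (URA3 locus) with a GFP reporter. Cells were induced with 1 uM beta-estradiol for 4 h at 30 C, FACS-sorted into 8 bins by GFP:mCherry ratio and barcodes sequenced. Activity is the read-weighted mean bin fluorescence (GFP:mCherry), averaged over barcodes (median 12); tiles under 50 reads were discarded. New active-learning values were harmonized by linear fit onto the scale of the initial (Hummel et al.) dataset. The assay saturates at low and high signal.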
row,Sequence,transcriptional activation domain activity
1,LILEPPPAGGADGGPPTRSVPSSALRVGDLVLLEKNQRVPADCVLLRTSDAAG,58800
2,KGDLESFRRITDLNLTHEHARWFCRYHMFYQLGNYCEIYLWRSIFRKVFLLTG,54700
3,FRFQQCMTRAMTLIKMYFVGSLRALSLDVFKRLSEKDVSPTAQMHLLYTRFKT,56200
4,MGMEHLAQPDQPNKKKRRRQALSCTECKRRKIKCDRKQPCSPCTRRGEQAKCQ,29900
5,ESNVEAGKAEAEKAVEEAAGAEGEGGEEKAVEEEVAEGAEGEAAEGEAAEGEA,32600
6,KLRKKQHGSNKDTIPSSQSRDIANDYDRGSTDNNLVTTTSTSSIFHDEDLTFF,44400
7,MIIIIIIIMGNRFMMMSFLFAFFSLFFFLMKFFLSFSFFLFLSFLLIMFAISL,62100
8,WPWTFWPWTFWIFWTFWTFGLFGLFGLFGLGLFGLFGLFGPLDFLDFLDLWTF,42000
9,ADIHDVVYYGTFTGIFPKLHWWIQKTLHLLKPFGLLSSRQVLVHFMLFHAEQR,83800
10,FHSLLSPFHASFLSLFYPHSLSCFYLFPFLHAFVFLFHFRCGFLGVSCILLSA,73200
11,SFMKVLFLLTRYIPFLSTPLDLYYLLAPNMTFRTCLVTFMISRWLLCAGIVCA,56200
12,IWVAPWNAGKILFFLIRYLVFVDTSVSIVYLAGGPLTLSRCHTLFGWFTASFT,74800
13,VALACLLTVLPFLVVLGTFILSLTIYTFFLDRSIMVAFFHPFLHPFFFFSFFV,25400
14,MQMKMSESMSILILMLIMLELGWDVVDPCFFFTPFTPFPILPSFLPSFFFLFL,54500
15,HHFVWERCLPDQMFVFAEDDIAHILNVTISSLELPMKTRQEIWVPSNVLFLCA,54200
16,IVFLLRVLIRCLPTLTQILDFELVSAELSLAELPDTQFKLKELGVSTKVVFTQ,45800
17,QRMGSMVQRVQSTCRKCRGEGKILLEKDRCKKCAGRGIVKASKKLEVHVDKGM,20000
18,KRSKSPDSRHSSSRKRSRSRERKHKSSRKRSKSREGKIKKSKSEKHRSHKHKR,46300
19,SEPEEEDSSSKKRKRKADDEGKKKAKKGKKAAGSDDEDEDANSVHISVTQAVS,36600
20,SKKKGRKAQKTGSADPAPNESKDRAGATEEAAEGAADEEDEQDEDEDEDEEGE,37600
21,SFILLFFYSFILLFFYSFILLFFWFFFCLWILIFSLFYSTIIITIKKRKAHTY,59300
22,LPSFLFSSLYCFSLLFLSFLSFFPFLTLLLLFSLFPSLSLSLFFSLLFSPQRL,63400
23,KEKEDYALAIKLYADSIIITLRRLFKELDYIEIKSLIISSMFKVLLYNLLIYK,66200
24,MRELFIFILFLFHFYPYSYFNYYIFFSFSYFLFRYFVSIIIIFFLIQVVFGLV,101000
25,MDEGFFFFCFSFLFLLSPPSSWYFVFSFFLPLNFPSCSLFFVITFFLFLFFFW,37900
26,DSSFDLNMNLDLNLNLDSNFNIALNRSDSSGSTMNLDYKLPESANNYTYSSGS,90700
27,MEGYELRMVALLLFSLLFVVAKKRGVHTNPSRLAVFVVLLRLCFVFCCLLFLA,85000

row,Sequence,transcriptional activation domain activity
1,AGRGGERRRRGLRRGRGRGAGAAARGRDGVRDDGERVAARVRVRVCARVCVCV,42600
2,MLLIWLYALKTGLVLSGSFLLAFGTQYPFFFMYFIGKPLFHDSFFLLSFLFFP,70200
3,MSLFSPCGETPLFLFPLFALTGLAPVLPPGSPLFFYLTLPLSFSFFHFFIFFF,79500
4,TMSMLCLEGFIIIYLLRETTLSFLDIIRCFSSMDPVALKLFVRCFLYTLVMCG,77500
5,ASSSTPGAHQPTRRSAGAHRSEEHSVVLHLPPGTHRMKFIVDDRWRVSRELPT,29000
6,RSTMKIVEEEDQRRRAIRKTCCALCGREEGVSLRCKRCKTVLYCSPSVRGCQL,33200
7,MRNDRGERKKEKRRREARERKKKERKGRREKGGKRKEEDEEKGRGGRGRRNGG,28600
8,GDGKEEGAQKKKKKKAKKAHGEEGEQEGGDEKAKKKKKKKKKKALGGRARARA,26600
9,EAPREIKAKPEKKKAKPAEAAAPKKESKGKKVKADKKAGADKKADPAAAPAAG,15300
10,RNEGEARKGEGGRMRVVGIRQRAEGKTRRRGRKRERGREGSERRGEGGGREQG,< 6570
11,SSQVARLHQSWQHSIRVPFALVANYDHPLPWLLQHYVPLYMPALLFRFHILTF,50100
12,MRDGKQGMREKKRKEEGESKSEKKNGKGGRMGKRGGKGKGRKREEQRRVGIEK,28100
13,LVQIVCVAGMHVTLYEQSCLYKCENLKRIITSFHHVNRKVRDAFINLYGKLNP,74600
14,REDRQRKQQREKERAAREAEGTQRRRRKRRRTNGGAKTEEGEEENDGEEEEDG,52800
15,LLFLPYSCASFFFSLFSLFYFFLFYFFLLFSHIRIFISLSIHFSSSCFSTFLL,58300
16,MVLHMRGHVQNKIKITLFTAFFFFVQIRSLGWILFLGFSFSALFFPIFFIFFI,55000
17,REEAERKAREEEAERKAARGRGEESEGRARKAGARRARGTPRGGKAGTRRGGE,43000
18,FSWFALANIWLMFSIIIDLLPGQNIIIFGTADIICGTHWMNLVFKWIYLAFLV,36900
19,MLLICMSVWLCALSLCILRCRENFFVLMGDVFFFLASMWYGTVSQFVRRPLFH,48100
20,SFVAYFSALWRGKQHRMTGYPIYDFFMGAELNPRMFGILDFKMFFEVRMPWYI,67400
21,AVAAAVAAIAAVAAEIKTVPAQAQEQEQEQEQEQAQVQVQVQAQAQPQQQQQA,< 6570
22,DGEGEDAEDGSKKDAEVAYHSGLGLKFRYPGDPKKLREASKLKLWTAYLKDHG,55100
23,LFFLLLPLLLHVIRIKSNMASSWVMVPLDFQPRHLIPLVENSHCLRNLQIFWL,71300
24,MPDVIFKPPPADPCHYDMCLVLYYSVLFSHFIVGFFLRVLHLWCSLLHFYSRI,63500
25,LSKRPGKPPARPSPQAAVQRRSFHATSSALASKDPYKTLGVGKSASASEIKKA,39500
26,RRKRRERREEERGRDKQGEEGGGRKGGGNRKEGGGGRRGRRSRGGGGGGAEGA,27800
27,MCHLTLLSLCFCSVASLLLSLFPLSLCLPFFILFIPPLFFLPHHIPSSFSFLV,59600

row,Sequence,transcriptional activation domain activity
1,EREREKREEREREAARLRREAEEREREEHEGRKREKREEPEEREAEEREREVE,33200
2,WDGGPTSKLTHVLLTYRQSILVTVYSHLLLLDHSSQVWWRWMNIFFTLVIWSI,71000
3,NSSNNNNNNNIISNRKQASKEKRKIPRHIQTIDEKLINDSNYLAFLKFDDLEN,83500
4,ASVERCHRNIVPNGCAVFQAGGLVVVLVEVSRKSYLASLVPVIVNAILNEHQI,43500
5,GEGRAGGGRGGRKDSRDDRRGNRNSSNERDRSRNRRNSNGNNRSKKNDSDRGR,24400
6,SSGDERQKHQTKSSSKKSREKSKKAAGRNKAEEAKTNDGRKSTRKPSKRTRST,24900
7,LFSFLFPLLLFFSHSFFFYPFLCPLLLPPSLSFYLPLSLSSLSPIPCICFFSD,63200
8,WSVMSCLYLVVRYFGIFLALLCGFWGGLLYIPESVSYGLIVLIEWGFSVYFWF,41400
9,MHTLLTILQTLHILVIFNTIVYPVCLFEICCFAWYFIPFAFRFLCLCFFFLFL,55000
10,AEEEQKKPKGKKAAAASKPKKSSDDEPAPGKSKPAARTGSIKGKSTGTKAGAQ,22300
11,MISFVSIVSILLAKSAFLFYFLRQDSFLPNLVFCLCISLLLLLVCLLQWLLVC,53700
12,MGGVFWKWKRGVWMVRFFRVFLQIFLADIGLILLVFWHYIVCLCYFLFFLVGI,52500
13,MNYLFSCFKFFLFFFFFLLFSFSPHLFFIFSCLLYLACLCVCVWWKGPFSCIS,72500
14,AAAGAREVKHPAAKKQKKIEGGSETKDEEEKSSSKKRQKSESKSKSKSKSKSK,28300
15,VAACLVNWDMKAAFVCVQSGNLKGVQALSALLGYVQIYYVQWLCAIVIAILYI,60000
16,MIMGKVVGSIPTVSNFLPFSFLFFFSSFLFSSLSSCEVVCLIISFFSFFHWLS,55200
17,MLFSLYLFFYFLFFVCDGLPYFWFYKHTRFSVNYVSSSPPFCWSLFFLFFYFF,62000
18,QAPQAGRGQGAQGGRTRHQAGGARAEEDEPQGARQEGRGGQGGGEEEARGGEG,37600
19,LILGLVHFLYVFFVQIFSHNFTLIPLALDCNFTWEYSVTFVWIGLHTLVAFPI,54500
20,FSSINANPFDLDEQLAIELSAFADDSFIFPDEDKPSNNNNNSNNGNDDHSNHD,80300
21,MNRIKSARGRDDGSDGEVRILVVSGPRVREVEWSGVQPAWMAVEVVVVMECPR,36800
22,MIVFSPISFVGTLWVVSCCLFFKFPLPLPFPLPLPFFFFVSLFFLYLSRKIRA,28200
23,MLRPYFFSPHFLLFVLVSAFNPGYYPPSLQFLSIICLYIFICPPPFFFISFPP,50800
24,RGSYRLFLIHARLICTIHPLHLPLLYFPAYSMCILYPTPTYITSCSLLAVSFV,55700
25,ESSSDEEEMTVAQKMAAQRKAEAAARRAKAHEEALAARSKDDLRSPICCILGH,53200
